B1: glmS ribozyme (parent)
chain: AUAAAAGCGCCAGAACUACAGAAAUGUAGUUGACGAGGAGGAGGUUUAUCGAAUUUUCGGCGGAUGCCUCCAAA

Conditions in all cases: with glucosamine-6-phosphate
Variants of B1 are the subject of data set [1]. Put plainly: kcat; higher = faster cleavage; RNA array. In short, it runs like this: (§1)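 Glucosamine-6-phosphate in HEPES/KCl/Mg(OAc)2 buffer, at 40 μM to 10 mM, was flowed over barcoded ribozyme variants transcribed in situ by E. coli RNA polymerase on sequenced MiSeq chips. Tracking was through a hybridised Cy3 probe at 37 °C. kobs, kcat and KM came from exponential decay fits and weighted Michaelis–Menten fits of normalised per-tile medians.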

The variants in data set [2] derive from B1. Put plainly: KM; higher = weaker cofactor use; RNA array. In short, it runs like this: as §1
Variants of B1 are the subject of data set [3]. Put plainly: self-cleavage kobs at 40 uM GlcN6P; higher = faster cleavage; RNA array. In short, it runs like this:
as §1

In data set [4] the parent is B1. Put plainly: self-cleavage kobs at 160 uM GlcN6P; higher = faster cleavage; RNA array. In short, it runs like this: as §1
The variants in data set [5] derive from B1. Put plainly: self-cleavage kobs at 640 uM GlcN6P; higher = faster cleavage; RNA array. In short, it runs like this:
as §1

In data set [6] the parent is B1. The data set is described as follows: self-cleavage kobs at 2500 uM GlcN6P; higher = faster cleavage; RNA array. In short, it runs like this:
as §1

Variants of B1 are the subject of data set [7]. The data set is described as follows: self-cleavage kobs at 10000 uM GlcN6P; higher = faster cleavage; RNA array. In short, it runs like this: as §1

± gives the standard error. For some assays here: Fewer inactive variants are shown than the library holds. Bounds are passed on as bounds.

One may read the kcat as the maximal rate divided by the concentration of active sites. By KM is commonly meant the concentration of substrate that gives half-maximal velocity.

Turning to C61A A64U C71G, in data set [1], the kcat amounted to 1.67e-05 ± 3.2e-06 s⁻¹.
Turning to U30A U31G, in data set [1], the catalytic constant (kcat) amounted to 0.0198 ± 0.0021 s⁻¹. Besides, in data set [2], the Michaelis-Menten constant (KM) was determined as 2.04 ± 0.29 mM. Also, in data set [3], the “self-cleavage kobs at 40 uM GlcN6P” value was 0.000379 ± 4.9e-05 s⁻¹. Moreover, the “self-cleavage kobs at 160 uM GlcN6P” value in data set [4] turned out to be 0.00148 ± 0.00031 s⁻¹. In data set [5], the “self-cleavage kobs at 640 uM GlcN6P” value amounted to 0.00508 ± 0.0011 s⁻¹. Besides, the “self-cleavage kobs at 2500 uM GlcN6P” value in data set [6] is 0.00933 ± 0.0019 s⁻¹. In addition, in data set [7], the “self-cleavage kobs at 10000 uM GlcN6P” value came out at 0.0178 ± 0.003 s⁻¹.
Consider A14C A36C, for which, in data set [1], the kcat is below 1e-05 s⁻¹. Besides, the “self-cleavage kobs at 40 uM GlcN6P” value in data set [3] was below 1e-05 s⁻¹. In addition, the “self-cleavage kobs at 160 uM GlcN6P” value in data set [4] was below 1e-05 s⁻¹.
Turning to A42C U57G, the kcat in data set [1] is below 1e-05 s⁻¹. The “self-cleavage kobs at 40 uM GlcN6P” value in data set [3] is below 1e-05 s⁻¹. For the same variant, the “self-cleavage kobs at 160 uM GlcN6P” value in data set [4] is below 1e-05 s⁻¹.
As for C67A C68G, the kcat in data set [1] was 4.23e-05 ± 1e-05 s⁻¹. Also, the “self-cleavage kobs at 160 uM GlcN6P” value in data set [4] is 4.13e-05 ± 1.5e-05 s⁻¹. For the same variant, the “self-cleavage kobs at 640 uM GlcN6P” value in data set [5] stood at 5.98e-05 ± 1.7e-05 s⁻¹. Moreover, the “self-cleavage kobs at 2500 uM GlcN6P” value in data set [6] was found to be 5.59e-05 ± 1.3e-05 s⁻¹. Also, the “self-cleavage kobs at 10000 uM GlcN6P” value in data set [7] was found to be 2.51e-05 ± 1.1e-05 s⁻¹.
In the case of A6G A12U, the kcat in data set [1] was 0.000134 ± 1.7e-05 s⁻¹. Moreover, the “self-cleavage kobs at 640 uM GlcN6P” value in data set [5] came out at 7.58e-05 ± 1.1e-05 s⁻¹. For the same variant, the “self-cleavage kobs at 2500 uM GlcN6P” value in data set [6] is 0.000155 ± 2.1e-05 s⁻¹. Also, the “self-cleavage kobs at 10000 uM GlcN6P” value in data set [7] came to 0.000119 ± 1e-05 s⁻¹.
Regarding U47C C58G G59A C61U C71A, in data set [1], the kcat worked out at 1.36e-05 ± 3.4e-06 s⁻¹.
With G29A G44A, the catalytic constant (kcat) in data set [1] was determined as 1.73e-05 ± 3.5e-06 s⁻¹. Also, the “self-cleavage kobs at 40 uM GlcN6P” value in data set [3] was below 1e-05 s⁻¹.
As for U45C C67G, the turnover number (kcat) in data set [1] was determined as 0.0224 ± 0.0058 s⁻¹. Further, in data set [2], the Michaelis constant (KM) was 5.68 ± 1.8 mM. Moreover, in data set [3], the “self-cleavage kobs at 40 uM GlcN6P” value was 0.000175 ± 3.4e-05 s⁻¹. For the same variant, the “self-cleavage kobs at 160 uM GlcN6P” value in data set [4] worked out at 0.000503 ± 0.00012 s⁻¹. Further, the “self-cleavage kobs at 640 uM GlcN6P” value in data set [5] came to 0.00339 ± 0.0011 s⁻¹. For the same variant, the “self-cleavage kobs at 2500 uM GlcN6P” value in data set [6] was found to be 0.00755 ± 0.0031 s⁻¹. In addition, the “self-cleavage kobs at 10000 uM GlcN6P” value in data set [7] worked out at 0.0141 ± 0.0026 s⁻¹.
Take A15U U57G: the kcat in data set [1] was found to be 1.7e-05 ± 6.8e-06 s⁻¹.
U56C U65A: the kcat in data set [1] was determined as 0.0012 ± 0.00021 s⁻¹. Also, the Michaelis-Menten constant (KM) in data set [2] was found to be 7.47 ± 2 mM. The “self-cleavage kobs at 160 uM GlcN6P” value in data set [4] is 2.29e-05 ± 1.1e-05 s⁻¹. The “self-cleavage kobs at 640 uM GlcN6P” value in data set [5] was 0.000115 ± 2.5e-05 s⁻¹. Further, in data set [6], the “self-cleavage kobs at 2500 uM GlcN6P” value amounted to 0.000269 ± 5.1e-05 s⁻¹. For the same variant, the “self-cleavage kobs at 10000 uM GlcN6P” value in data set [7] is 0.000702 ± 8.3e-05 s⁻¹.
Consider G59C U69A, for which the kcat in data set [1] worked out at 2.45e-05 ± 5.3e-06 s⁻¹.
As to C16A A39C, the kcat in data set [1] was determined as 0.000305 ± 1.9e-05 s⁻¹. For the same variant, the KM in data set [2] was determined as 4.34 ± 0.49 mM. Further, the “self-cleavage kobs at 640 uM GlcN6P” value in data set [5] amounted to 3.69e-05 ± 1.3e-05 s⁻¹. In data set [6], the “self-cleavage kobs at 2500 uM GlcN6P” value was determined as 0.000114 ± 1.5e-05 s⁻¹. Further, in data set [7], the “self-cleavage kobs at 10000 uM GlcN6P” value is 0.00021 ± 2.9e-05 s⁻¹.
For A42U U54G the same measures were 0.000246 ± 1e-05 s⁻¹, 0.736 ± 0.11 mM, 0.000117 ± 2e-05 s⁻¹, 0.000201 ± 3.1e-05 s⁻¹ and 0.000226 ± 2.1e-05 s⁻¹.
Consider U55A U57A, for which the kcat in data set [1] is 0.000112 ± 3.7e-05 s⁻¹. Besides, the “self-cleavage kobs at 640 uM GlcN6P” value in data set [5] came to 7.83e-05 ± 1.8e-05 s⁻¹. The “self-cleavage kobs at 2500 uM GlcN6P” value in data set [6] came out at 8.45e-05 ± 2.7e-05 s⁻¹.
Take C34U C58A: in data set [1], the turnover number (kcat) was below 1e-05 s⁻¹. Moreover, the “self-cleavage kobs at 40 uM GlcN6P” value in data set [3] was below 1e-05 s⁻¹. In data set [5], the “self-cleavage kobs at 640 uM GlcN6P” value is below 1e-05 s⁻¹. For the same variant, the “self-cleavage kobs at 2500 uM GlcN6P” value in data set [6] was below 1e-05 s⁻¹.
G43A U45G: the turnover number (kcat) in data set [1] is 0.0116 ± 0.0056 s⁻¹. Besides, the “self-cleavage kobs at 40 uM GlcN6P” value in data set [3] turned out to be 0.000563 ± 0.0001 s⁻¹. In addition, the “self-cleavage kobs at 160 uM GlcN6P” value in data set [4] turned out to be 0.000816 ± 0.00022 s⁻¹. Besides, in data set [5], the “self-cleavage kobs at 640 uM GlcN6P” value turned out to be 0.00306 ± 0.00054 s⁻¹. For the same variant, the “self-cleavage kobs at 2500 uM GlcN6P” value in data set [6] was 0.00969 ± 0.0023 s⁻¹. In addition, in data set [7], the “self-cleavage kobs at 10000 uM GlcN6P” value worked out at 0.00965 ± 0.0026 s⁻¹.
Consider A14G C68A U69G, for which the catalytic constant (kcat) in data set [1] turned out to be 0.000118 ± 2.9e-05 s⁻¹. Also, the “self-cleavage kobs at 640 uM GlcN6P” value in data set [5] stood at 0.000112 ± 2.8e-05 s⁻¹. In addition, in data set [6], the “self-cleavage kobs at 2500 uM GlcN6P” value is 9.76e-05 ± 1.8e-05 s⁻¹.
For the variant A42G C58G, the kcat in data set [1] came out at 0.000303 ± 2.3e-05 s⁻¹. Besides, the KM in data set [2] is 6.97 ± 0.95 mM. In addition, the “self-cleavage kobs at 2500 uM GlcN6P” value in data set [6] was 7.8e-05 ± 1.5e-05 s⁻¹. For the same variant, the “self-cleavage kobs at 10000 uM GlcN6P” value in data set [7] was 0.00018 ± 2.6e-05 s⁻¹.

Source of the values: the supplement of paper PMC7125110.
